# Measured values reported in FireProtDB (doi:10.1021/bi00250a042).
# B1: Subtilisin-chymotrypsin inhibitor-2A, P01053 (parent)
# chain: MSSVEKKPEGVNTGAGDRHNLKTEWPELVGKSVEEAKKVILQDKPEAQIIVLPVGTIVTMEYRIDRVRLFVDKLDNIAQVPRVG
# Variants of: B1
# Conditions: Hordeum vulgare; pH 6.3; 25 °C; GdnHCl; Fluorescence; MES 450 mM; reversible: yes; structure 2CI2; whole UniProt chain shown
Variant,ddG of mutation (higher = less stable) [kcal/mol],denaturant m value [kcal/mol/M],denaturant midpoint (higher = more stable) [M],unfolding free energy [kcal/mol]
MSSVEKKPEGVNTGAGDRHNLKTEWPELVGKSVEEAKKVILQDKPEAQIIVLPVGTIVAMEYRIDRVRLFVDKLDNIAQVPRVG [T59A],0.68,1.89,3.63,6.86
MSSVEKKPEGVNTGAGDRHNLKTEWPELVGKSVEEAKKVILQDKPEAQIIVLPVGTIVDMEYRIDRVRLFVDKLDNIAQVPRVG [T59D],0.04,1.87,4.01,7.5
MSSVEKKPEGVNTGAGDRHNLKTEWPELVGKSVEEAKKVILQDKPEAQIIVLPVGTIVAMAYRIDRVRLFVDKLDNIAQVPRVG [T59A E61A],0.67,1.94,3.54,6.87
MSSVEKKPEGVNTGAGDRHNLKTEWPELVGKSVEEAKKVILQDKPEAQIIVLPVGTIVTMAYRIDRVRLFVDKLDNIAQVPRVG [E61A],1.06,1.78,3.64,6.48
